Assay results: paper PMC7509637 (Advanced Science, 2020)
“Also recorded” adds a separate entry of the source.

What was measured:
Aβ [1] = molecular target: T1, Aβ (Homo sapiens, UniProt P05067); test: ThT kinetic assay of Aβ fibrillization (seeding with FapC species, Aβ seeds, bLgS); assay type: biochemical; settings: 37 °C, n = 3
T1 construct: purchased Anaspec Inc
Description: FapC seeds (FapCS) were produced by FapC fibrils of three different ages. The FapC monomers were produced as described^[ ^45 ^] and stored in 6 M GdmCl. Prior to fibrillization, the FapC monomers were purified via a PD10 desalting column. FapC monomers (1 mg mL^−1 or 40 × 10^−6 M) were incubated in deionized water at 37 °C for 1 week to produce mature fibrils and at 37 °C or 25 °C for 4 d to obtain young fibrils. Deionized water was used to make FapC fibrils as it is convenient to transfer the samples to other experimental conditions, i.e., buffered Aβ solution or PBS for in vivo microinjection. However, bacterial amyloids like FapC and curli can make amyloids over a range of conditions.^[ ^93 ^] FapCS were produced by sonicating an aqueous solution of FapC fibrils (10 × 10^−6 M) at 20 power of a probe sonicator (Sonics Vibracell: 750 watts and 20 kHz) for 2 min with 1 s on/off cycle. For in vitro cross‐seeding experiments, 50 × 10^−6 M of Aβ monomers were incubated with 5 × 10^−6 M of FapCS (10:1 molar ratio, Aβ:FapCS) at 37 °C. bLg amyloids were synthesized by heating of bLg monomers (80 °C, pH 2) of 10 mg mL^−1 solution for 24 h. Prior to the production of bLgS, the bLg amyloid solution was brought to pH 7 and then sonicated, similar to FapC, to generate bLgS.
Aβ (Anaspec Inc., purity ≥ 95%) was dissolved in 100 µL of hexafluoro‐2‐propanol (HFIP) and incubated at room temperature for 3 h. The acquired aliquots of this solution were freeze dried and stored at −20 °C for further experimentation. […] For the ThT kinetic assay, a 100 µL of aqueous solution containing Aβ (50 × 10^−6 M), FapCS or bLgS (5 × 10^−6 M) and ThT dye (100 × 10^−6 M) was incubated (37 °C) in a 96‐well plate. The ThT fluorescence (excitation: 445 nm/ emission: 485 nm) was recorded at specified time intervals for 50 h. Kinetic parameters (rate constant k, half‐life t 1/2 and lag‐time) were calculated as described.^[ ^94 ^] Briefly, kinetic curves were fitted to a sigmoidal curve =y0+ymax−y0/1+e^−(t−t1/2)k , where y 0 and y max are initial and final ThT fluorescence values, allowing us to calculate lag time = t 1/2 − 2/k.

adult zebrafish = test: Behavioral pathology of adult zebrafish (swimming); assay type: in vivo, zebrafish (AB, Danio rerio)
Description: Adult zebrafish (10 months) were employed for the study. Prior to microinjection, adult zebrafish were anesthetized by placing them in a beaker filled with ice‐chilled tricaine (0.01% in Holtfreter's buffer) for 20 s. The samples of Aβ alone and Aβ with FapCS or bacterial biofilm fragments were injected to the cerebroventricular space of adult fish with a 1 µL Hamilton glass syringe. The concentration of the Aβ peptide was 40 × 10^−6 M (in PBS, pH 7.4) while FapCS or biofilm fragments were included at a 10:1 ratio (Aβ:FapCS or biofilm fragments). The needle penetrated between left and right telencephalon for not more than 1 mm and injection volume was 1 µL. The syringe was washed with ethanol and PBS in between the injections. The injections were made under a stereomicroscope and fish were held in place with forceps. After microinjection, the fish was placed back in the water tank for recovery.
The behavioral pathology of the adult fish was observed after 4 d and 2 weeks of microinjection. The behavioral pathology of movement frequency and traveled distance was recorded with a zebrabox (Viewpoint) in a 1 L swimming tank. For cognitive function test, the tank was hypothetically divided into two parts of arena 1 and arena 2, and arena 2 was labeled by pasting a red paper at the bottom of the tank. The behavior of the untreated fish was recorded as positive control, in both arenas. Then fish from each sample were trained to avoid swimming in arena 2 by shocking with a 9 V battery electrodes, whenever the fish swim into arena 2. The fish were allowed to familiarize with the tank for 30 min and then trained for 20 min. After training, the swimming behavior of the fish was recorded in whole tank and then analyzed for arena 1 versus arena 2 with software EthnoVision X1.
The observations were made for 1 min with three fish per samples. The measurements were made three times in a day and then averaged together. […] Movement trajectories were also recorded with the instrument's camera.

adult zebrafish brain = test: IHC for Aβ deposition in brain of adult zebrafish; assay type: in vivo, zebrafish (AB, Danio rerio); settings: two days postinjection (so in the source)
Description: Adult zebrafish (10 months) were employed for the study. Prior to microinjection, adult zebrafish were anesthetized by placing them in a beaker filled with ice‐chilled tricaine (0.01% in Holtfreter's buffer) for 20 s. […] The needle penetrated between left and right telencephalon for not more than 1 mm and injection volume was 1 µL. The syringe was washed with ethanol and PBS in between the injections. The injections were made under a stereomicroscope and fish were held in place with forceps. After microinjection, the fish was placed back in the water tank for recovery.
The head of the fish was separated at pectoral fin point with a sharp blade and fixed in paraformaldehyde as described in the “Animal husbandry and ethics statement” section. The fixed heads were dehydrated by dipping in gradual concentration of ethanol, i.e., 20%, 40%, 60%, 80%, and 100% with 10 min at each step. The heads were treated with 20% sucrose overnight, mounted with Tissue Trek OCT mounting medium at −20 °C. The heads were then sectioned into 20 × 10^−6 M thick section with a cryostat. The sections were mounted on a gelatinized glass slide and immunostained with antibodies. The sections were dried, washed thrice in PBS (pH 7.4), and TritonX‐100 (0.05% in PBS) for 5 min each. […] The sections were imaged by a fluorescence microscope and fluorescence intensities were measured from the images with Fiji ImageJ analysis.

Aβ [2] = molecular target: T1, Aβ; test: Static light scattering (SLS) of Aβ fibrillar growth; assay type: biochemical; settings: ratio as for ThT assay, Malvern Zetasizer Nano, n = 3
Description: Increases in the size of Aβ in the presence and absence of FapCS or bLgS were monitored by SLS. Solution of Aβ with FapCS or bLgS, at a similar ratio as for the ThT assay, was prepared and incubated. SLS measurements were performed at different time intervals using a Malvern Zetasizer Nano. The parameters were fixed at 7 for attenuator and 4.20 mm for cell position. Quartz cells with low volume capacity (100 µL) were used. The light scattering intensities (kilo counts per sec) and the refractive indices of the samples, buffer alone and toluene were measured.

Aβ monomers = test: Isothermal titration calorimetry (ITC); assay type: binding; settings: Aβ 200 × 10^−6 M into 20 × 10^−6 M seeds, 0.1% NH4OH, 25 °C
Description: ITC (Malvern MicroCal iTC200) was used to explore the interaction between Aβ monomers and oligomers (Aβo) with FapCS. Sample solutions were degassed at 25 °C while stirring (100 rpm). Aβ (200 × 10^−6 M, 40 µL) was filled into the syringe while FapCS or bLgS (20 × 10^−6 M, 200 µL) were filled in the cell (coin shaped). 0.1% NH4OH buffer solution was used for both solutions. Aβ was injected into the cell at an injection volume of 2 µL at the duration of 4 s and with a spacing of 180 s. First injection was 0.2 µL for 0.4 s duration and a total of 16 injections were programed. The heat exchange was recorded with a Microcal analysis (origin v7) software. The heat of dilution (Aβ against buffer) was subtracted from the interaction heat of samples. The acquired curves were fitted to a sequential binding model and thermodynamic parameters of binding energy (ΔH), free energy (ΔG), and entropic factor (TΔS) were calculated. Aβo for the ITC experiments was prepared by incubating Aβ aqueous solution (200 × 10^−6 M) at 4 °C for 48 h.^[ ^65 ^]

[3] = 2 weeks postinjection, Aβ 1 µL, 40 × 10^−6 M, n = 3 per group, three groups

Molecule: amyloid beta [Aβ]
- fibrillization rate constant (k) (Aβ [1]; Aβ 50 × 10^−6 M alone or with FapCS 5 × 10^−6 M): 0.7 h⁻¹
- distance traveled (adult zebrafish; [3]): 57 ± 6.9 cm per min
- movement frequency (adult zebrafish; [3]): 6 ± 2 per min
- swimming behavior (in words) (adult zebrafish; 4 d postinjection): did not produce significant difference in the swimming behavior compared to the buffer control
- Aβ deposition in brain (in words) (adult zebrafish brain): did not render any deposition in the fish brain

B1: FapCS: FapC seeds obtained by sonication of mature FapC fibrils (P. aeruginosa) (protein)
chain: GNEGGWHPPKPNPQSNNKGGATALVVDTQQNYNNKVSNFGTLNNASVSGSIKDASGNVGVNVAAGDNNQQANAAALASADASFVFGTATASTSVLQSGYGNTLNNYSNPNTASLSNSANNVSGNLGVNVAAGNFNQQKNDLAAAVSNGQYSTAGSAASQTSTGNTTVNSANYAYGGTYVSLKLNADGSYKGTSDQIGDVYLDTWEGQTHPGGSNTGHIDVDSQAQGAKDLNHDGGAFAFKEKGDVDLKGTVSGFIPAIVGFKTPVTNNASLSNSLQNVSGNVGVNIAAGGGNQQSNSLSIAAGCSSCPAGGESLGF
- effect on half-life t1/2 of Aβ (in words) (Aβ [1]; 5 × 10^−6 M with Aβ 50 × 10^−6 M, **, p < 0.005): significantly shortened
- effect on rate constant k of Aβ (in words) (Aβ [1]; 5 × 10^−6 M with Aβ 50 × 10^−6 M, FapCS *, p < 0.05, FapC monomer and fibrils **, p < 0.005): significantly increased
- lag time of Aβ (in words) (Aβ [1]; Aβ 50 × 10^−6 M with FapCS 5 × 10^−6 M, **, p < 0.005): significantly shortened
- effect on Aβ fibrillization (ThT) (Aβ [1]; Aβ 50 × 10^−6 M, seeds/FapC species 5 × 10^−6 M, ThT fluorescence ex 445/em 485 nm): acceleration of Aβ fibrillization
- Aβ fibrillar growth by SLS (Aβ [2]): significantly more rapid Aβ fibrillar growth; also recorded: rapid growth in the size of Aβ fibrils
- binding to Aβ by ITC (in words) (Aβ monomers): weak but favorable interaction; also recorded: favorable binding with Aβ
